Results published in the supplement of paper PMC10065799, “High-throughput profiling of sequence recognition by tyrosine kinases and SH2 domains using bacterial peptide display” (eLife, 2023).

test system: c-Src; test: phosphorylation enrichment, bacterial display (enrichment ratio); higher = better substrate or ligand; peptides without Tyr show the background
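Wherever SH2 binding enrichment of the phosphorylated peptide, bacterial display is given: peptide library displayed on the E. coli surface as eCPX fusions, selected cells deep-sequenced, score is each peptide's frequency after selection divided by its frequency in the input.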
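Wherever phosphorylation enrichment, bacterial display is given: 11-residue human phosphosite peptides and single-mutation variants displayed on the E. coli surface, counted by deep sequencing, each peptide's frequency after selection divided by its frequency in the unselected input library; frequency after pTyr selection over input frequency; kinase dosed for 20-30% of maximal phosphorylation in three min.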

| Sequence | phosphorylation enrichment |
| --- | --- |
| FFRKFYNKSED [RYR1_Y4864] | 0.388 |
| EALDFYGEVKT [PTEN_Y155_R159K] | 1.21 |
| CTTNHYNFMCN [TP53_Y234_I232N_YF] | 0.497 |
| PMWHPYKADVT [TP53TG5_Y255_V257A] | 0.756 |
| GRSTCYWPRPR [GAGE12J_Y10_Y9C] | 0.649 |
| AKKVFYVIETR [SHH_Y253] | 0.412 |
| FLEEEYVKAVG [TF_Y674_G671E_YF] | 0.528 |
| RSSKTYLKTRS [LPL_Y329_M328T] | 0.856 |
| TNIKRYHIAKG [HARS1_Y150_V155G] | 0.408 |
| QNTADYYDLYG [PTPN11_Y62_G60A] | 4.18 |
| MGIMLYGVDSR [PKD1_Y3143_V3138M] | 0.496 |
| TEALFYTDDTA [ADPRS_Y75_YF] | 0.634 |
| VRVQLYDPDYM [CYP4A22_Y100] | 0.615 |
| HFPDVYAWEQL [ALX3_Y181_R183W_YF] | 5.25 |
| RLLRGYDQYAY [HLA-B_Y137_H137Y] | 0.738 |
| SSTAMYSAPGR [PSMB1_Y8] | 0.631 |
| WNEVGYDDIGG [VCP_Y203_L198W] | 0.502 |
| QNTGFYFDLFG [PTPN11_Y62_D61Y_YF] | 0.681 |
| QTLEAYIRCNK [SPAST_Y604_W607C] | 0.372 |
| TTPFNYSFIFK [RAB14_Y8_A4T_YF] | 0.593 |
| SQSPHYFRSGQ [GPATCH8_Y1038_R1043Q] | 0.427 |
| KSPDSYQKILP [ATM_Y1415_L1420P] | 0.389 |
| ERLWVYGMSSS [F8_Y1728_D1727V] | 0.556 |
| EQLRAYLEGLC [HLA-C_Y183_T187L] | 0.618 |
| TIQDAYMHITS [ADCY10_Y318_A313T] | 0.451 |
| SVTCTYSPALK [TP53_Y126_N131K] | 0.557 |
| GGSTYYIDTNA [ACTL6A_Y69_P66S] | 0.805 |
| FLTQHYDAIPQ [ANG_Y38_K41I] | 0.678 |
| DSNPIYSQIWS [FCRL3_Y662] | 8.52 |

target: Grb2 SH2 (UniProt P62993); test: SH2 binding enrichment of the phosphorylated peptide, bacterial display (enrichment ratio); higher = better substrate or ligand; peptides without Tyr show the background
Sequence (P62993 whole entry, looked up): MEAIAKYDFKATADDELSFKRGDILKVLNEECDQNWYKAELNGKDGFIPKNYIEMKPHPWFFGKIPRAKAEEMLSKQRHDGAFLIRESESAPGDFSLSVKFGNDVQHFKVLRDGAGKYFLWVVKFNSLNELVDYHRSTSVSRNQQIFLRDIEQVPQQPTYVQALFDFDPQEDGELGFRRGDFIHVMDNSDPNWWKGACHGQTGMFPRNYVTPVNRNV

| Sequence | SH2 binding enrichment |
| --- | --- |
| FFRKFYNKSED [RYR1_Y4864] | 0.51 |
| EALDFYGEVKT [PTEN_Y155_R159K] | 0.813 |
| CTTNHYNFMCN [TP53_Y234_I232N_YF] | 0.962 |
| PMWHPYKADVT [TP53TG5_Y255_V257A] | 0.791 |
| GRSTCYWPRPR [GAGE12J_Y10_Y9C] | 1.03 |
| AKKVFYVIETR [SHH_Y253] | 1.2 |
| FLEEEYVKAVG [TF_Y674_G671E_YF] | 1.08 |
| RSSKTYLKTRS [LPL_Y329_M328T] | 1.23 |
| TNIKRYHIAKG [HARS1_Y150_V155G] | 0.93 |
| QNTADYYDLYG [PTPN11_Y62_G60A] | 1.25 |
| MGIMLYGVDSR [PKD1_Y3143_V3138M] | 0.61 |
| TEALFYTDDTA [ADPRS_Y75_YF] | 0.739 |
| VRVQLYDPDYM [CYP4A22_Y100] | 1.08 |
| HFPDVYAWEQL [ALX3_Y181_R183W_YF] | 1.23 |
| RLLRGYDQYAY [HLA-B_Y137_H137Y] | 1.26 |
| SSTAMYSAPGR [PSMB1_Y8] | 0.774 |
| WNEVGYDDIGG [VCP_Y203_L198W] | 0.973 |
| QNTGFYFDLFG [PTPN11_Y62_D61Y_YF] | 1.19 |
| QTLEAYIRCNK [SPAST_Y604_W607C] | 0.76 |
| TTPFNYSFIFK [RAB14_Y8_A4T_YF] | 1.1 |
| SQSPHYFRSGQ [GPATCH8_Y1038_R1043Q] | 0.869 |
| KSPDSYQKILP [ATM_Y1415_L1420P] | 0.947 |
| ERLWVYGMSSS [F8_Y1728_D1727V] | 0.872 |
| EQLRAYLEGLC [HLA-C_Y183_T187L] | 0.704 |
| TIQDAYMHITS [ADCY10_Y318_A313T] | 0.902 |
| SVTCTYSPALK [TP53_Y126_N131K] | 0.697 |
| GGSTYYIDTNA [ACTL6A_Y69_P66S] | 1.03 |
| FLTQHYDAIPQ [ANG_Y38_K41I] | 0.809 |
| DSNPIYSQIWS [FCRL3_Y662] | 1.1 |

target: SHP2-C SH2; test: as above

| Sequence | SH2 binding enrichment |
| --- | --- |
| FFRKFYNKSED [RYR1_Y4864] | 0.613 |
| EALDFYGEVKT [PTEN_Y155_R159K] | 0.757 |
| CTTNHYNFMCN [TP53_Y234_I232N_YF] | 1.12 |
| PMWHPYKADVT [TP53TG5_Y255_V257A] | 1.04 |
| GRSTCYWPRPR [GAGE12J_Y10_Y9C] | 0.831 |
| AKKVFYVIETR [SHH_Y253] | 1.03 |
| FLEEEYVKAVG [TF_Y674_G671E_YF] | 0.934 |
| RSSKTYLKTRS [LPL_Y329_M328T] | 0.875 |
| TNIKRYHIAKG [HARS1_Y150_V155G] | 0.972 |
| QNTADYYDLYG [PTPN11_Y62_G60A] | 0.739 |
| MGIMLYGVDSR [PKD1_Y3143_V3138M] | 0.653 |
| TEALFYTDDTA [ADPRS_Y75_YF] | 0.675 |
| VRVQLYDPDYM [CYP4A22_Y100] | 1.45 |
| HFPDVYAWEQL [ALX3_Y181_R183W_YF] | 0.662 |
| RLLRGYDQYAY [HLA-B_Y137_H137Y] | 0.954 |
| SSTAMYSAPGR [PSMB1_Y8] | 0.557 |
| WNEVGYDDIGG [VCP_Y203_L198W] | 0.566 |
| QNTGFYFDLFG [PTPN11_Y62_D61Y_YF] | 0.657 |
| QTLEAYIRCNK [SPAST_Y604_W607C] | 0.626 |
| TTPFNYSFIFK [RAB14_Y8_A4T_YF] | 1.82 |
| SQSPHYFRSGQ [GPATCH8_Y1038_R1043Q] | 0.533 |
| KSPDSYQKILP [ATM_Y1415_L1420P] | 0.688 |
| ERLWVYGMSSS [F8_Y1728_D1727V] | 0.688 |
| EQLRAYLEGLC [HLA-C_Y183_T187L] | 0.66 |
| TIQDAYMHITS [ADCY10_Y318_A313T] | 0.895 |
| SVTCTYSPALK [TP53_Y126_N131K] | 0.518 |
| GGSTYYIDTNA [ACTL6A_Y69_P66S] | 0.906 |
| FLTQHYDAIPQ [ANG_Y38_K41I] | 0.927 |
| DSNPIYSQIWS [FCRL3_Y662] | 0.89 |

target: c-Src SH2; test: as above

| Sequence | SH2 binding enrichment |
| --- | --- |
| FFRKFYNKSED [RYR1_Y4864] | 0.264 |
| EALDFYGEVKT [PTEN_Y155_R159K] | 0.471 |
| CTTNHYNFMCN [TP53_Y234_I232N_YF] | 3.79 |
| PMWHPYKADVT [TP53TG5_Y255_V257A] | 0.484 |
| GRSTCYWPRPR [GAGE12J_Y10_Y9C] | 0.507 |
| AKKVFYVIETR [SHH_Y253] | 0.775 |
| FLEEEYVKAVG [TF_Y674_G671E_YF] | 0.569 |
| RSSKTYLKTRS [LPL_Y329_M328T] | 0.758 |
| TNIKRYHIAKG [HARS1_Y150_V155G] | 0.867 |
| QNTADYYDLYG [PTPN11_Y62_G60A] | 0.7 |
| MGIMLYGVDSR [PKD1_Y3143_V3138M] | 0.439 |
| TEALFYTDDTA [ADPRS_Y75_YF] | 0.615 |
| VRVQLYDPDYM [CYP4A22_Y100] | 0.545 |
| HFPDVYAWEQL [ALX3_Y181_R183W_YF] | 0.809 |
| RLLRGYDQYAY [HLA-B_Y137_H137Y] | 2.15 |
| SSTAMYSAPGR [PSMB1_Y8] | 1.08 |
| WNEVGYDDIGG [VCP_Y203_L198W] | 9.33 |
| QNTGFYFDLFG [PTPN11_Y62_D61Y_YF] | 0.663 |
| QTLEAYIRCNK [SPAST_Y604_W607C] | 0.474 |
| TTPFNYSFIFK [RAB14_Y8_A4T_YF] | 1.86 |
| SQSPHYFRSGQ [GPATCH8_Y1038_R1043Q] | 0.484 |
| KSPDSYQKILP [ATM_Y1415_L1420P] | 1.45 |
| ERLWVYGMSSS [F8_Y1728_D1727V] | 0.639 |
| EQLRAYLEGLC [HLA-C_Y183_T187L] | 0.449 |
| TIQDAYMHITS [ADCY10_Y318_A313T] | 1.26 |
| SVTCTYSPALK [TP53_Y126_N131K] | 0.523 |
| GGSTYYIDTNA [ACTL6A_Y69_P66S] | 0.731 |
| FLTQHYDAIPQ [ANG_Y38_K41I] | 13.9 |
| DSNPIYSQIWS [FCRL3_Y662] | 0.851 |
